This series is described as follows: yeast display, Sf9 membrane polyspecificity reagent, FACS + sequencing; frameworks hold sequencing errors. The method in brief: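 Nanobodies came from a synthetic yeast display library in Saccharomyces cerevisiae BJ5465, induced with galactose for 36–48 hours and stained for 1 hour at 4 °C with 10% biotinylated, detergent-solubilized Sf9 membrane reagent. Cells were enriched on streptavidin microbeads and then FACS-sorted, with low and high (top ~1%) gates set on anti-HA fluorescence for expression and streptavidin fluorescence for reagent binding. Each polyreactivity label reflects the gate a clone came from. Genes were amplified by colony PCR, sequenced by MiSeq 2 × 250 and filtered by CDR length.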
As for “QVQLVESGGGLVQAGGSLRLSCAASGSIYGGYAMGWYRQAPGKEREFVAAISRSGSSTYYADSVKGRFTISRDNAKNTVYLQMNSLKPEDTAVYSCAARYAGKAPGYRRYDYWGQGTQVTVSS”, the “polyreactivity (PSR sort gate)” value is reported as “high polyreactivity”.
The entry for “QVQLVESGGGLVQAGGSLRLSCAASGSIYGLYAMGWSREAPGKEREVVATITESGGSTYYADSVKGRFTISRDNAKNTVYLQMKSLKPEDTAVYYCHSDEVSAQYDDWGQGTQVTVSS” is “low polyreactivity”; for “QVQLVESGGGLVQAGGSLRLSCAASGSIYGPYAMGWYRQAPGKERELVAAIAESSGSTYYADSVKGRFTISRDNAKNTVYLQMNRMKPEDTAVYYCAAEQITGWSWVWGSWYDYWGQGTQVTVSS” it is “low polyreactivity”.
On to “QVQLVESGGGLVQAGGSLRLSCAASGSIYGTNAMGWYRKAPGKEREFVASITWGGGTYYADSVKGRFTISRDNAKNTVYFQMNSLKQEDSAVYYCATERVYTVYYDYDSWGQGTQVTVSS”, for which the “polyreactivity (PSR sort gate)” value is on record as “low polyreactivity”.
The entry for “QVQLVESGGGLVQAGGSLRLSCAASGSIYIYYAMGWYRQAPVKERELVADITFSAGSNTYYADSVKGRFTISRDNAKNTVYLQMNSLKPEDTAVYYCNADRGFFGSITEYDYWGQGTQVTVSS” is “low polyreactivity”; for “QVQLVESGGGLVQAGGSLRLSCAASGSIYRYAMGSYRQAPGKERELVAAINFNGGRTYYADSVKGRFTISRDNAKNTVYLQMNSLKPEDTAVYYCAAVRSSNQGGFDYWGQGTQVTVSS” it is “high polyreactivity”.
On to “QVQLVESGGGLVQAGGSLRLSCAASGSIYWLYAMGWYRQAPGKERELVAAIDSGDSTKNADSVKGRFTISRDNAKNTVYLQMNSLKPEDTAVYYCNASRRYHVRAPYDYWGQGTHVTVSS”, for which the “polyreactivity (PSR sort gate)” value is reported as “low polyreactivity”.
The same measure for “QVQLVESGGGLVQAGGSLRLSCAASGSIYWYAMGWYRQAPGKERQLVAAITKSGSSTYYADSVKGRFTISRDNAKNTVYLQMNSLIPEDTAVYYCAARRAVSGGVRTYYWGQGTQVTVSS”: “high polyreactivity”.
With “QVQLVESGGGLVQAGGSLRLSCAASGSIYYNAMGWYRQAPGKERELVASISTGDSTDYADSVKGRFTISRDNAKNTVYLQMNSLKPEDTAVYYCAADTRLGYWDDYWGQGTQVTVSS”, the “polyreactivity (PSR sort gate)” value is on record as “low polyreactivity”.
Take “QVQLVESGGGLVQAGGSLRLSCAASGSIYYSYAMGWYRQAPGKERELVARITKRGGRTYYADSVKGRFTISRDNAKNTVYLQMNSLKPEDTAVYYCAATTGHRTYRYYYWGQGTQVTVSS”: the “polyreactivity (PSR sort gate)” value is “high polyreactivity”.
Regarding “QVQLVESGGGLVQAGGSLRLSCAASGSIYYWYTMGWYRQAPGKERELVAAISLSDGRTYYADSVKGRFTISRDNAKNTVYLQMNSLKPEDTAVYYCAADYRDASGYYRYDYWGQGTQVTVSS”, the “polyreactivity (PSR sort gate)” value is “low polyreactivity”.
The entry for “QVQLVESGGGLVQAGGSLRLSCAASGSKFKRNAMVWYRQAPGKERELVASISSGGSTHYADSVNGRFTISRDNSKNTVYLEMNSLKPEDTAVYYCAATSIRWSVGSFRRDYWGQGTQVTVSS” is “low polyreactivity”.
The entry for “QVQLVESGGGLVQAGGSLRLSCAASGSLFEINAMGWYRPAPGKERELVAAITGSGGSTHYADSVKGRFTISRDNAKNTVYLQMNSLKPEDTAVYYCSAVPRYQYGYWGQGTQVTVSS” is “low polyreactivity”; for “QVQLVESGGGLVQAGGSLRLSCAASGSLFGVNAMGWYRQAPGKERELVASISLSDDRTYYADSVKGRFTISRDIAKNTDYLQMNSLKPEDTAVYYCARRLLWYWDVDPSLAEYDYWGQGTQVTVSS” it is “low polyreactivity”; for “QVQLVESGGGLVQAGGSLRLSCAASGSLFIANAMGWYRQAPGKERELVAAISWSGGRTYYADSVKGRFTISRDNAKNTVYLQMNSLKPEDTAVYYCAAEWEFYYEYDYWGQGTQVTVSS” it is “high polyreactivity”.
As to “QVQLVESGGGLVQAGGSLRLSCAASGSLFPLYAMGWYRQAPGKERELVAAITWRGGSTYYADSVKGRFTISRDNAKNTVYLQMNSLKPEDTAVYYCNRDLVPRFDYWGQGTQVTVSS”, the “polyreactivity (PSR sort gate)” value was “low polyreactivity”.
The entry for “QVQLVESGGGLVQAGGSLRLSCAASGSLFSGNAMGWYRQAPGKEREFVAAISRSGSSTYYADSVKGRFTISRDNAKNPVYLQMNSLKPEDTAVYYCASRFGDMGYWGQGTQVTVSS” is “high polyreactivity”; for “QVQLVESGGGLVQAGGSLRLSCAASGSMFTNYAMGWYRQAPGQERELVAAISVGGGRTYYADSVKGRFTISRDNAQNTVYVQLNSLKPEDTAVYYCAARYPFGSLGRYGYWGQGTQVTVSS” it is “high polyreactivity”; for “QVQLVESGGGLVQAGGSLRLSCAASGSMLKSYAMGWYIQAPGKESELVAAITYRDGSTYYADSVKGRFTISRDNAKNTVYLQMNSLKPEDTAVYYCNARWARGRYAQYGGLDREYDYWGQGTQVTVSS” it is “high polyreactivity”.
The same measure for “QVQLVESGGGLVQAGGSLRLSCAASGSNFAAYTMGWYRQAPGKERELVAAISVSTVSTYYADSVKGRFTISRDNAKNTVYLQMYSLTPEDTAVYYCIADATDSYPEKYEHDSWGQGTQVTVSS”: “low polyreactivity”; for “QVQLVESGGGLVQAGGSLRLSCAASGSNFDNAKGWYRQAPGKERELVAAITSGGITNYADSVKGRFTNSRDNAKKTVYLQMNSQKPEDTAVYYCNTMSPTQTKYDYWGQGTQVTVSS”: “low polyreactivity”; for “QVQLVESGGGLVQAGGSLRLSCAASGSNFDPNAMGWYRQAPGKERELVAAISWSGGSTYYADSVKGRFTISRDNAKNTVYLQMNSLKPEDTAVSYCNAQFYDSYSYTNDDWGQGTLVTVSS”: “low polyreactivity”.
Take “QVQLVESGGGLVQAGGSLRLSCAASGSNFGFYAMGWYRQAPGKERELVAAIDSGDSTNYADSVKGRFTISRDNAKNTVYLQMNSLKPEDTAVYYCNAEAWWYFWFDYWGQGTQVTVSS”: the “polyreactivity (PSR sort gate)” value is on record as “low polyreactivity”.
The entry for “QVQLVESGGGLVQAGGSLRLSCAASGSNFGPYAMGWSRPAPGKEMELVASITWTGGRTYYADSVKGRFTISLDNAKNTVYLQMNSLKPEDTAVYYCAADYSPSTWYLYYTLYYYWGQGTQVTVSS” is “low polyreactivity”.
The entry for “QVQLVESGGGLVQAGGSLRLSCAASGSNFGPYAMGWYRQAPGKERELVAAISYSSVRTYYADSVKGRFTISRDNAKNTVYLQMNSLKPEVTAVYYCNAYFRYAYPSKMDYWGQGTQVTVSS” is “low polyreactivity”; for “QVQLVESGGGLVQAGGSLRLSCAASGSNFHGNSLGRYRQGTGKERELVAAISQSGDSTYYADSVKGRFTISRDNAKNTVYLQMNSLKPEDTAVYYCAARSGYRGYYHFYYWGQGTQVTVSS” it is “high polyreactivity”; for “QVQLVESGGGLVQAGGSLRLSCAASGSNFLAYAMGWYRQAPGKERELVADISWGGGSTSYADSVKGRFTISRDNAKNTVYLQMNSLKPEDTAVYYCNKGSFSKRRDYYWGQGTQVTVSS” it is “high polyreactivity”.
The entry for “QVQLVESGGGLVQAGGSLRLSCAASGSNFLGNAMGWSIQAPGKERELVAAISSITGRTYYADSVKGRFTISRDNAKNTVYLQMNSLKPEDTAVYYCAAVQGANYYNEFDYWGQGTQVTVSS” is “high polyreactivity”.
“QVQLVESGGGLVQAGGSLRLSCAASGSNFLHNAMGWYRQAPGKERELDAAISGTGGRTYYADSVKGRFTISRDTANNTVYLQMNGLKPEDTAVYYWAARGSHVSIPRYNYWGQGTQVTVSS”: the “polyreactivity (PSR sort gate)” value was “high polyreactivity”.
Consider “QVQLVESGGGLVQAGGSLRLSCAASGSNFPHYTMGWYRQAPAKERELVAAISNYGSSTYYADSVKGRFTISRDNAKNTVYLQMNSLKPEDTAVYYCNADDYGYSPGVNYWGQGTQVTVSS”, for which the “polyreactivity (PSR sort gate)” value is listed as “low polyreactivity”.
The entry for “QVQLVESGGGLVQAGGSLRLSCAASGSNFRGNAKGWSRQAPGKERELVAAISKSGGSTYYADSVKGRFTISRDNAKNTVYLQMNSLKPEDTAVYYCAARTTYLYGMYYWGQGTQVTVSS” is “low polyreactivity”; for “QVQLVESGGGLVQAGGSLRLSCAASGSNFRLYAMGWYRHAPGKERELVATISGSAGRTYYADSVKGRFTISRDYAKNTVYLQMNSLKPEDTAVYYCAARWYQEYFWGQGTQVTVSS” it is “high polyreactivity”.
In the case of “QVQLVESGGGLVQAGGSLRLSCAASGSNFRVNAMGWYRQAPGKERELVAASSSGGSTHYADSVKGRFTISRDNAKNTFYLQMISLKPEDTAVYYCAVRYALGPYLWYYWGQGTQVTVSS”, the “polyreactivity (PSR sort gate)” value is reported as “high polyreactivity”.
The same measure for “QVQLVESGGGLVQAGGSLRLSCAASGSNFRVYAMGWYSQAAGKERELVAAISRSGSITYYADSVKGRFTISRDNAKNTVYLQMNSLKPEDTAVYYCAARTYCRFTASTYYYWGQGTQVTVSS”: “high polyreactivity”; for “QVQLVESGGGLVQAGGSLRLSCAASGSNFSAYMGWYRQAPGKERELVADISSTGTTYYADSVKGRFTISRDNAKNTVYLQMNSLKPEDTAVYYCNADYFLQQEVTFDYWGQGSQVTVSS”: “high polyreactivity”.
The same measure for “QVQLVESGGGLVQAGGSLRLSCAASGSNFSGNAMGWYRQAPGKERELVAAISRRGGRTYYADSVKGRFTISRDNAKNTVYLQMNSLIPEDTAVYYCNADSVRYDYSAYDYEYWGQGTQVNVSS”: “high polyreactivity”; for “QVQLVESGGGLVQAGGSLRLSCAASGSNFSRYAMGWYTQAPGKERELVAAISKSGGSTYYADSVKGRFTISRDNAKNTVYLEMNSLIPEDTAVYYCNARDSPVQRRAEPYGYWGQGTQVTVSS”: “high polyreactivity”; for “QVQLVESGGGLVQAGGSLRLSCAASGSNFSYYTMGWYRRATGKERELVAGITWSGGGTSYADSVKGRFTISRDNAKNTVYVQMNSLKPEDTAVYYCAAVDIGRYYRLDYWGQGTQVTVSS”: “low polyreactivity”.
The same measure for “QVQLVESGGGLVQAGGSLRLSCAASGSNFTYYAMGWYRQAPGKEREFVAAINRSGGSTYYADSVKGRFTISRDNAKNTVYLQMNSLKPEDTAVYYCAARRGSGALRYNYWGQGTQVTVSS”: “high polyreactivity”; for “QVQLVESGGGLVQAGGSLRLSCAASGSNFTYYAMGWYRQAPGKERELVAAISYSGGTTYYADSVKGRFTISRDNAKNTVYLQMNSLKPEDTAVYYCNVDADYESQWLSVGYDYWGQGTQVTVSS”: “low polyreactivity”; for “QVQLVESGGGLVQAGGSLRLSCAASGSNFVGYAMGWYRQAPGKERELVAAISWSGDSTYYADSVKGRFTISRDNAKITVYLQMNSLKPEDTAVYYCAVDYAEIGPRREVEYDYWGHGTQVTVSS”: “low polyreactivity”.

Values taken from the nanobody polyreactivity screen of Harvey et al. (2022).
